In general, Kd refers to a measure of binding affinity in units of concentration. Read a low Kd as a tighter complex. Broadly, the koff is the first-order rate constant of dissociation. A high value points to fast dissociation. In general, kon refers to a measure of how fast the partners come together. Low values mean slow association, high ones fast association.

Test [1] deals with canine beta-NGF (cNGF) (canine). As to the kind of experiment: SPR (Biacore), cNGF binding. (SPR reads the build-up and loss of mass on a sensor chip optically.)
The target of test [2] is NGF (species not stated). As to the kind of experiment: cell-based or functional assay.
Test [3] addresses rat NGF (rat) (UniProt P25427). Put plainly: cell-based or functional assay.
The target of test [4] is canine beta-NGF (cNGF) (canine). As to the kind of experiment: SPR (Biacore), cNGF binding; KD column of Table 7.

Chain of rat NGF (rat) (P25427 122-241 limits assumed): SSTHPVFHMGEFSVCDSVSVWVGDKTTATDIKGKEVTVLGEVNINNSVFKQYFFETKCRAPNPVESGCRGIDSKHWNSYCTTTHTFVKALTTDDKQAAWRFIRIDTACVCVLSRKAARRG
Chain of canine beta-NGF (cNGF) (canine) (Q29074 110-229 N171T limits assumed): as the sequence (P25427 122-241 limits assumed) above, with T3S, M9R, T37M, A60D, N62T, E65D, T92M, D94G, A117G, G120A counted along it

B1: ZTS-182m6 (antibody, V domains shown)
VH: EVQLVESGGDLARPGGSLKLSCVVSGFTLTQYGINWVRQAPGKGLQWVTVIWATGATDYNSALKSRFTVSRDNAMNTVYLQMNSLRVEDTAVYYCARDGWWYATSWYFDVWGQGTLVTVSS
VL: DIVMTQTPLSLSVSPGEPASISCKASQDINHYLNWFRQKPDGTVKLLIYYTTRLQAGVPSRFSGSGSGTDFTLRISRVEADDAGVYYCQQGDHFPRTFGQGT
In test [1], B1 came in with a Kd of 0.00434 nM, a koff of 1.54e-08 s⁻¹ and a kon of 3560 M⁻¹ s⁻¹. Moreover, in test [2], the IC50 nM (TF-1 proliferation inhibition, NGF 2.0 ng/ml) worked out at 0.087 nM and the IC50 µg/ml (TF-1 proliferation inhibition, NGF 2.0 ng/ml) was 0.0131 µg/mL. In addition, in test [3], the IC50 nM (inhibition of neurite outgrowth, PC12 cells, rat NGF 10 ng/ml; Repeat 1) was determined as 0.26 nM; the IC50 nM (inhibition of neurite outgrowth, PC12 cells, rat NGF 10 ng/ml; Repeat 2) worked out at 0.24 nM; the IC50 µg/ml (inhibition of neurite outgrowth, PC12 cells, rat NGF 10 ng/ml; Repeat 1) was determined as 0.039 µg/mL; the IC50 µg/ml (inhibition of neurite outgrowth, PC12 cells, rat NGF 10 ng/ml; Repeat 2) was found to be 0.035 µg/mL. The Kd in test [4] amounted to 0.00434 nM.
